In the Immune Epitope Database (IEDB):
One block for each sequence: values may come before it.

Assays:
HLA-A*32:01 = test: IEDB peptide-MHC binding, purified MHC/competitive/radioactivity; filed as Kd, often an IC50 or EC50 that approximates it; ≥ and ≤ were set here for values at or beyond the usual limits of such assays
HLA-A*68:01 = test: as above; conditions: source organism: SARS coronavirus Tor2
HLA-A*11:01 = test: as above; conditions: source organism: SARS coronavirus Tor2
HLA-A*29:02 = test: as above
HLA-A*33:01 = test: as above; conditions: source organism: SARS coronavirus Tor2
HLA-A*24:02 = test: as above
HLA-A*23:01 = test: as above
HLA-A*30:02 = test: as above
HLA-A*26:01 = test: as above
HLA-A*01:01 = test: as above
HLA-A*31:01 = test: as above; conditions: source organism: SARS coronavirus Tor2
HLA-A*02:01 = test: IEDB peptide-MHC binding, purified MHC/competitive/fluorescence; filed as Kd, often an IC50 or EC50 that approximates it; ≥ and ≤ were set here for values at or beyond the usual limits of such assays
HLA-A*02:02 = test: IEDB peptide-MHC binding, purified MHC/competitive/radioactivity; filed as Kd, often an IC50 or EC50 that approximates it; ≥ and ≤ were set here for values at or beyond the usual limits of such assays; conditions: source organism: Vaccinia virus WR
HLA-A*02:03 = test: as above; conditions: source organism: Vaccinia virus WR
HLA-A*02:06 = test: as above; conditions: source organism: Vaccinia virus WR
[1] = source organism: Vaccinia virus WR
[2] = source organism: Dengue virus 1 Brazil/97-11/1997
[3] = source organism: SARS coronavirus Tor2
[4] = source organism: Dengue virus 2 Peru/IQT2913/1996
[5] = source organism: Mammarenavirus guanaritoense
[6] = source organism: Triticum aestivum
[7] = source organism: Mammarenavirus machupoense
[8] = source organism: Mammarenavirus brazilense
[9] = source organism: Mammarenavirus lassaense
[10] = source organism: Mammarenavirus whitewaterense

Sequence: RTFLIDLAF
Kd (HLA-A*32:01; [1]): 0.48 nM

Sequence: QILLMRTTW
Kd (HLA-A*32:01; [2]): 22 nM

Sequence: ATSRTLSYY
Kd (HLA-A*68:01): 1200 nM | Kd (HLA-A*11:01): 28.5 nM | Kd (HLA-A*29:02; [3]): 12 nM | Kd (HLA-A*33:01): ≥ 77700 nM | Kd (HLA-A*24:02; [3]): ≥ 35700 nM | Kd (HLA-A*23:01; [3]): ≥ 77800 nM | Kd (HLA-A*30:02; [3]): 1.03 nM | Kd (HLA-A*26:01; [3]): 1940 nM | Kd (HLA-A*01:01; [3]): 4.81 nM | Kd (HLA-A*31:01): 3880 nM

Sequence: PYRVVVLSF
Kd (HLA-A*29:02; [3]): 11500 nM | Kd (HLA-A*24:02; [3]): 100 nM | Kd (HLA-A*23:01; [3]): 20.8 nM | Kd (HLA-A*30:02; [3]): ≥ 93800 nM | Kd (HLA-A*26:01; [3]): 1040 nM | Kd (HLA-A*01:01; [3]): 1480 nM

Kd (HLA-A*02:01; source organism: Escherichia coli E22): 157 nM
Sequence: ALSPPLLLL

Sequence: TVMAFHLTT
Kd (HLA-A*32:01; [4]): 19200 nM

Sequence: YVQRFFLRV
Kd (HLA-A*29:02; [5]): 767 nM | Kd (HLA-A*24:02; [5]): ≥ 26600 nM | Kd (HLA-A*23:01; [5]): 4270 nM | Kd (HLA-A*30:02; [5]): 732 nM | Kd (HLA-A*26:01; [5]): ≥ 77900 nM | Kd (HLA-A*01:01; [5]): 1020 nM

Sequence: GTDLEGKFY
Kd (HLA-A*29:02; [3]): 273 nM | Kd (HLA-A*24:02; [3]): ≥ 77600 nM | Kd (HLA-A*23:01; [3]): ≥ 77800 nM | Kd (HLA-A*30:02; [3]): 1390 nM | Kd (HLA-A*26:01; [3]): ≥ 38800 nM | Kd (HLA-A*01:01; [3]): 33.4 nM

Sequence: RTYGVNYTF
Kd (HLA-A*32:01; [1]): 0.261 nM

Sequence: LFADINGKL
Kd (HLA-A*29:02; [3]): 470 nM | Kd (HLA-A*24:02; [3]): 722 nM | Kd (HLA-A*23:01; [3]): 1300 nM | Kd (HLA-A*30:02; [3]): 4340 nM | Kd (HLA-A*26:01; [3]): ≥ 41700 nM | Kd (HLA-A*01:01; [3]): ≥ 78100 nM

Sequence: YFTNDVSFL
Kd (HLA-A*29:02; [3]): ≥ 75000 nM | Kd (HLA-A*24:02; [3]): ≥ 78100 nM | Kd (HLA-A*23:01; [3]): 18300 nM | Kd (HLA-A*30:02; [3]): ≥ 96800 nM | Kd (HLA-A*26:01; [3]): 16100 nM | Kd (HLA-A*01:01; [3]): 12900 nM

Sequence: NVAYGAVSF
Kd (HLA-A*32:01; [1]): 136 nM

Sequence: CFANKHAGF
Kd (HLA-A*29:02; [3]): 28.8 nM | Kd (HLA-A*24:02; [3]): 27.4 nM | Kd (HLA-A*23:01; [3]): 105 nM | Kd (HLA-A*30:02; [3]): 6620 nM | Kd (HLA-A*26:01; [3]): 11800 nM | Kd (HLA-A*01:01; [3]): ≥ 78100 nM

Sequence: HFAIGLALY
Kd (HLA-A*29:02; [3]): 4.71 nM | Kd (HLA-A*24:02; [3]): 11100 nM | Kd (HLA-A*23:01; [3]): 11500 nM | Kd (HLA-A*30:02; [3]): 13.2 nM | Kd (HLA-A*26:01; [3]): 240 nM | Kd (HLA-A*01:01; [3]): ≥ 119000 nM

Sequence: GSAKLRWFVE
Kd (HLA-A*32:01; source organism: Dengue virus 2 Jamaica/1409/1983): ≥ 22200 nM

Kd (HLA-A*29:02; [6]): 1530 nM | Kd (HLA-A*24:02; [6]): 676 nM | Kd (HLA-A*23:01; [6]): 19800 nM | Kd (HLA-A*30:02; [6]): 185 nM | Kd (HLA-A*26:01; [6]): ≥ 25900 nM | Kd (HLA-A*01:01; [6]): ≥ 48900 nM
Sequence: QFPGQQQPF

Sequence: KVDTTHVSKV
Kd (HLA-A*02:01; source organism: Myxoma virus): 42.3 nM

Sequence: DVIPMVTQM
Kd (HLA-A*26:01; [4]): 64.2 nM

Sequence: ITLVVISVI
Kd (HLA-A*32:01; [1]): ≥ 35300 nM | Kd (HLA-A*02:02): 15100 nM | Kd (HLA-A*02:03): 1810 nM | Kd (HLA-A*02:06): 1030 nM

Sequence: EYFMCFKYLL
Kd (HLA-A*29:02; [7]): 49 nM | Kd (HLA-A*24:02; [7]): 192 nM | Kd (HLA-A*23:01; [7]): 9.3 nM

Sequence: AMISLAKKI
Kd (HLA-A*02:01; source organism: Vaccinia virus WR 65-16): 903 nM

Sequence: KTTAKEVAL
Kd (HLA-A*32:01; source organism: Dengue virus 4 Philippines/H241/1956): ≥ 21100 nM

Sequence: RLKGVTCRLF
Kd (HLA-A*29:02; [8]): 395 nM | Kd (HLA-A*24:02; [8]): 719 nM | Kd (HLA-A*23:01; [8]): 98.3 nM

Sequence: GYVVSNFEGV
Kd (HLA-A*29:02; [7]): ≥ 70800 nM | Kd (HLA-A*24:02; [7]): ≥ 70300 nM | Kd (HLA-A*23:01; [7]): ≥ 70000 nM | Kd (HLA-A*30:02; [7]): ≥ 69700 nM | Kd (HLA-A*26:01; [7]): ≥ 69700 nM | Kd (HLA-A*01:01; [7]): ≥ 70400 nM

Sequence: TTQTSALSI
Kd (HLA-A*32:01; [1]): 145 nM

Sequence: MYEMHRESLL
Kd (HLA-A*29:02; [5]): 9880 nM | Kd (HLA-A*24:02; [5]): 3170 nM | Kd (HLA-A*23:01; [5]): 870 nM

Sequence: LTGTFVTAF
Kd (HLA-A*32:01; [1]): 8.81 nM

Sequence: KLFYVYYNL
Kd (HLA-A*32:01; [1]): 0.344 nM

Sequence: YFESYVRPFV
Kd (HLA-A*29:02; [9]): 3940 nM | Kd (HLA-A*24:02; [9]): 12800 nM | Kd (HLA-A*23:01; [9]): 1890 nM | Kd (HLA-A*30:02; [9]): 4250 nM | Kd (HLA-A*26:01; [9]): ≥ 46100 nM | Kd (HLA-A*01:01; [9]): ≥ 70400 nM

Sequence: QVFLKMRRIF
Kd (HLA-A*29:02; [10]): 9080 nM | Kd (HLA-A*24:02; [10]): 12300 nM | Kd (HLA-A*23:01; [10]): 401 nM

Sequence: AVLTGGVTL
Kd (HLA-A*32:01; [2]): 6690 nM

Sequence: IRHLFGNYI
Kd (HLA-A*29:02; [5]): 571 nM | Kd (HLA-A*24:02; [5]): ≥ 43700 nM | Kd (HLA-A*23:01; [5]): ≥ 22100 nM | Kd (HLA-A*30:02; [5]): ≥ 24100 nM | Kd (HLA-A*26:01; [5]): ≥ 77900 nM | Kd (HLA-A*01:01; [5]): ≥ 22200 nM

Sequence: GYTMHANYI
Kd (HLA-A*29:02; [3]): ≥ 88200 nM | Kd (HLA-A*24:02; [3]): 13500 nM | Kd (HLA-A*23:01; [3]): 6960 nM | Kd (HLA-A*30:02; [3]): ≥ 78900 nM | Kd (HLA-A*26:01; [3]): ≥ 77900 nM | Kd (HLA-A*01:01; [3]): ≥ 78100 nM

Sequence: ISLFYTFAI
Kd (HLA-A*32:01; [1]): 0.567 nM

Sequence: LYDANYFVCW
Kd (HLA-A*29:02; [3]): 1440 nM | Kd (HLA-A*24:02; [3]): 55.4 nM | Kd (HLA-A*23:01; [3]): 24.5 nM | Kd (HLA-A*30:02; [3]): 13400 nM | Kd (HLA-A*26:01; [3]): 9640 nM | Kd (HLA-A*01:01; [3]): 1130 nM

Sequence: RTFNRTHYW
Kd (HLA-A*32:01; [1]): 0.243 nM
